In test [1] the target is T1, human VEGF165A (#ab56620; Abcam) (human, UniProt P15692-4 27-191, biotinylated (EZ-Link Sulfo-NHS-LC-Biotinylation kit) in the competitive ELISAs of Examples 8, 9 and 16; unlabelled in the direct ELISA and the pull-down).
T1 construct: Isoform VEGF165 of VEGF-A; also called rhVEGF165; biotinylated VEGF165
As to the kind of experiment: competitive ELISA, inhibition of biotinylated VEGF165 binding to VEGFR2-Fc; competition ELISA: blocking of biotinylated VEGF165 binding to VEGFR2-Fc; Biligand 2 tested up to 50 µM. A general note: An ELISA detects its analyte on a solid surface through an enzyme-linked reagent.

The target in test [2] is T1, human VEGF165A (#ab56620; Abcam). As to the kind of experiment: direct ELISA: VEGF165A immobilized on NUNC MaxiSorp plate, biotinylated PCC or bevacizumab (mAb or Fab) titrated, normalized to binding at saturation.
Test [3] shares this target. As to the kind of experiment: direct ELISA, VEGF165 coated, biotinylated capture agent.
For test [4] the target is unchanged. Nature of the test: direct ELISA: VEGF165 coated on the plate, biotinylated binder titrated, streptavidin poly-HRP, fluorescence normalised to saturation.
Test [5] has the same target. As to the kind of experiment: direct ELISA: VEGF165A immobilized on NUNC MaxiSorp plate, biotinylated peptide titrated, normalized to binding at saturation.
For test [6] the target is unchanged. Nature of the test: competitive ELISA, inhibition of biotinylated VEGF165 binding to VEGFR2-Fc; competition ELISA: blocking of biotinylated VEGF165 binding to VEGFR2-Fc; anchor tested up to 50 µM.

Bridges are numbered along the chain shown (N, C = ends). Primed or numbered codes have the meaning given here. Where no end group is shown, it is not given here. [ ]: non-standard residue; d: D form. Tz4″ = 1,4-disubstituted 1,2,3-triazole linker between anchor and secondary ligand; Lys(N3) = [N-]=[N+]=NCCCC[C@H](N)C(=O)O

T1 sequence (P15692 other isoform, or with tags, fused parts or gaps limits assumed): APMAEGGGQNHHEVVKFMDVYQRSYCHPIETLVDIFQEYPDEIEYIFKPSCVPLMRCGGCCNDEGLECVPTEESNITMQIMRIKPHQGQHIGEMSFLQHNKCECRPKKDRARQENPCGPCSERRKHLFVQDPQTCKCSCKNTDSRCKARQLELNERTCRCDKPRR

B1: Biligand 2 (X-…-Tz4-Ifrew) (designed binder)
peptide: VEPNCDIHVMWEWECFERL[Tz4″][dL][dF][dR][dE][dW]
modifications: disulfide 5-15; numbers in words are those of the source; also: N-terminal group is biotin-PEG3 or acetyl, not fixed
B1 gave an IC50 in test [1] above 50000 nM. Also, the EC50 (read off the curve) in test [2] stood at 40 nM; in test [4] it was 50 nM. The molecule further yielded a fold improvement in affinity relative to the anchor ligand in test [3] of 5 fold.

B2: anchor ligand X-VEPNCDIHVMWEWECFERL-Az4 (peptide)
peptide: VEPNCDIHVMWEWECFERL[Lys(N3)]
modifications: disulfide 5-15; also: N-terminal X is biotin-PEG3 or acetyl, not settled
notes: Phage display-derived peptide; also called Biotin-PEG-anchor ligand-Az4
On to B2, for which the “EC50 (read off the curve)” value in test [5] is around 300 nM; in test [2], around 100 nM; in test [4] it was around 100 nM. In test [6], this molecule registered an IC50 above 50000 nM.

What is called IC50 is the concentration that gives 50% inhibition. A low value points to greater potency. One may read the EC50 (read off the curve) as the midpoint of the concentration-response curve.

The record behind these values is US20130156692A1 (INDI MOLECULAR, published 2013).
